# PMC7386476
# B1: RNA scaffold (template-product, cryo-EM primer and template, Figure 1A) (dsRNA)
# RNA 1: CUAUCCCCAUGUGAUUUUAAUAGCUUCUUAGGAGAAUGACGUAGCAUGCUACGCG
# RNA 2: CGCGUAGCAUGCUACGUCAUUCUCCUAAGAAGCUA
# How the values were obtained:
# [1] = biological target: nsp12 (RNA-dependent RNA polymerase);nsp7;nsp8;nsp13 helicase (SARS-CoV-2;SARS-CoV-2;SARS-CoV-2;SARS-Co …, UniProt P0DTD1;P0DTD1;P0DTD1;P0DTD1 4393-5324;3860-3942;3943-4140;5325-5925, |||); test: EMSA
# [2] = biological target: nsp12 (RNA-dependent RNA polymerase);nsp7;nsp8 (SARS-CoV-2;SARS-CoV-2;SARS-CoV-2, UniProt P0DTD1;P0DTD1;P0DTD1 4393-5324;3860-3942;3943-4140, ||); test: EMSA
binder,measurement,setting,value
B1,binding result,[1],binds
same,binding result,[2],binds
